Results on one substance are retold here after paper PMC3688963, “Biochemical Characterization of Hypothetical Proteins from Helicobacter pylori” (PLoS ONE, 2013).

The data set relates to CC(=O)Oc1ccc([N+](=O)[O-])cc1. The experiment in a line: purified protein. To be noted: 100 mM sodium acetate pH 6.0, 30°C.

Broadly, the Km is the concentration of substrate that gives half-maximal velocity. A word on the Vmax: it is the top rate of the reaction or transport when substrate is in excess. In general, kcat refers to the maximal rate divided by the concentration of active sites. The kcat/Km is the turnover number divided by the Michaelis constant. Take HP0310 (Helicobacter pylori 26695): the Km was found to be 180 ± 50 µM, the maximal velocity (Vmax) worked out at 37400 µM/min, the kcat is 20.1 ± 0.917 s⁻¹ and the kcat/Km came out at 112000 M⁻¹ s⁻¹.
